Measured values reported in US20050009182.

Biological target: T1, phiC31 integrase (Streptomyces phage phiC31) (UniProt Q9T221)
T1 sequence: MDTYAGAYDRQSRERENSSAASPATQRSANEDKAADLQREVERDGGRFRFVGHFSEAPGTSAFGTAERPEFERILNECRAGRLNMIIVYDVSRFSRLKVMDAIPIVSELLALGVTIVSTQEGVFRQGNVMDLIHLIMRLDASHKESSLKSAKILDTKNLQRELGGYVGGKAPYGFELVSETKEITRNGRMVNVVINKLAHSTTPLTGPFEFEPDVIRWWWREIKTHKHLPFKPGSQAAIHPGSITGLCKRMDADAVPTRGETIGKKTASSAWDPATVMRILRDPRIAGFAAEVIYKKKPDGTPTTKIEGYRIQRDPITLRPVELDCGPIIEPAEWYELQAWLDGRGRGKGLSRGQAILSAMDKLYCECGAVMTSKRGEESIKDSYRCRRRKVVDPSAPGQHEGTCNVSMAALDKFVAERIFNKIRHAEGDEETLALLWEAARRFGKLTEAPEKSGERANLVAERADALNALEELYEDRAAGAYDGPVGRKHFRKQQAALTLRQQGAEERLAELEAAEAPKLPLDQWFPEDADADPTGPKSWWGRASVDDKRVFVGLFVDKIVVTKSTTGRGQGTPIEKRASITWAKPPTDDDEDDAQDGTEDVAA
Assay: cell_activity

Substance	activity (Ura+ transformants per 10^7 cells) (S. pombe FY527attPx2, circular pLT50 plus pLT43, 63 without integrase)	activity (Ura+ transformants per 10^7 cells) (S. pombe FY527attPx2, linear attB-ura4-attB plus pLT43, 19 without integrase)
phiC31 attB (500 bp BamHI-XbaI fragment of pHS21)	2560	–
phiC31 attP 84 bp (ApaI-SacI fragment of pHS282)	–	1570
